Experimental data from publication PMC12192683.

Molecular target: low-density lipoprotein receptor-related protein 1 (LRP1), full-length, purified from human placenta (human) (UniProt Q07954)
Assay: SPR; Biacore 3000; receptor amine-coupled to CM5 chip; ligand flowed in HBS-P (0.01 M HEPES pH 7.4, 0.15 M NaCl, 0.005% P20) with 1 mM CaCl2, 10 ul/min, 25 C; kinetic fit to a 1:1 Langmuir model

Chain of low-density lipoprotein receptor-related protein 1 (LRP1), full-length, purified from human placenta (human) (Q07954 20-4544): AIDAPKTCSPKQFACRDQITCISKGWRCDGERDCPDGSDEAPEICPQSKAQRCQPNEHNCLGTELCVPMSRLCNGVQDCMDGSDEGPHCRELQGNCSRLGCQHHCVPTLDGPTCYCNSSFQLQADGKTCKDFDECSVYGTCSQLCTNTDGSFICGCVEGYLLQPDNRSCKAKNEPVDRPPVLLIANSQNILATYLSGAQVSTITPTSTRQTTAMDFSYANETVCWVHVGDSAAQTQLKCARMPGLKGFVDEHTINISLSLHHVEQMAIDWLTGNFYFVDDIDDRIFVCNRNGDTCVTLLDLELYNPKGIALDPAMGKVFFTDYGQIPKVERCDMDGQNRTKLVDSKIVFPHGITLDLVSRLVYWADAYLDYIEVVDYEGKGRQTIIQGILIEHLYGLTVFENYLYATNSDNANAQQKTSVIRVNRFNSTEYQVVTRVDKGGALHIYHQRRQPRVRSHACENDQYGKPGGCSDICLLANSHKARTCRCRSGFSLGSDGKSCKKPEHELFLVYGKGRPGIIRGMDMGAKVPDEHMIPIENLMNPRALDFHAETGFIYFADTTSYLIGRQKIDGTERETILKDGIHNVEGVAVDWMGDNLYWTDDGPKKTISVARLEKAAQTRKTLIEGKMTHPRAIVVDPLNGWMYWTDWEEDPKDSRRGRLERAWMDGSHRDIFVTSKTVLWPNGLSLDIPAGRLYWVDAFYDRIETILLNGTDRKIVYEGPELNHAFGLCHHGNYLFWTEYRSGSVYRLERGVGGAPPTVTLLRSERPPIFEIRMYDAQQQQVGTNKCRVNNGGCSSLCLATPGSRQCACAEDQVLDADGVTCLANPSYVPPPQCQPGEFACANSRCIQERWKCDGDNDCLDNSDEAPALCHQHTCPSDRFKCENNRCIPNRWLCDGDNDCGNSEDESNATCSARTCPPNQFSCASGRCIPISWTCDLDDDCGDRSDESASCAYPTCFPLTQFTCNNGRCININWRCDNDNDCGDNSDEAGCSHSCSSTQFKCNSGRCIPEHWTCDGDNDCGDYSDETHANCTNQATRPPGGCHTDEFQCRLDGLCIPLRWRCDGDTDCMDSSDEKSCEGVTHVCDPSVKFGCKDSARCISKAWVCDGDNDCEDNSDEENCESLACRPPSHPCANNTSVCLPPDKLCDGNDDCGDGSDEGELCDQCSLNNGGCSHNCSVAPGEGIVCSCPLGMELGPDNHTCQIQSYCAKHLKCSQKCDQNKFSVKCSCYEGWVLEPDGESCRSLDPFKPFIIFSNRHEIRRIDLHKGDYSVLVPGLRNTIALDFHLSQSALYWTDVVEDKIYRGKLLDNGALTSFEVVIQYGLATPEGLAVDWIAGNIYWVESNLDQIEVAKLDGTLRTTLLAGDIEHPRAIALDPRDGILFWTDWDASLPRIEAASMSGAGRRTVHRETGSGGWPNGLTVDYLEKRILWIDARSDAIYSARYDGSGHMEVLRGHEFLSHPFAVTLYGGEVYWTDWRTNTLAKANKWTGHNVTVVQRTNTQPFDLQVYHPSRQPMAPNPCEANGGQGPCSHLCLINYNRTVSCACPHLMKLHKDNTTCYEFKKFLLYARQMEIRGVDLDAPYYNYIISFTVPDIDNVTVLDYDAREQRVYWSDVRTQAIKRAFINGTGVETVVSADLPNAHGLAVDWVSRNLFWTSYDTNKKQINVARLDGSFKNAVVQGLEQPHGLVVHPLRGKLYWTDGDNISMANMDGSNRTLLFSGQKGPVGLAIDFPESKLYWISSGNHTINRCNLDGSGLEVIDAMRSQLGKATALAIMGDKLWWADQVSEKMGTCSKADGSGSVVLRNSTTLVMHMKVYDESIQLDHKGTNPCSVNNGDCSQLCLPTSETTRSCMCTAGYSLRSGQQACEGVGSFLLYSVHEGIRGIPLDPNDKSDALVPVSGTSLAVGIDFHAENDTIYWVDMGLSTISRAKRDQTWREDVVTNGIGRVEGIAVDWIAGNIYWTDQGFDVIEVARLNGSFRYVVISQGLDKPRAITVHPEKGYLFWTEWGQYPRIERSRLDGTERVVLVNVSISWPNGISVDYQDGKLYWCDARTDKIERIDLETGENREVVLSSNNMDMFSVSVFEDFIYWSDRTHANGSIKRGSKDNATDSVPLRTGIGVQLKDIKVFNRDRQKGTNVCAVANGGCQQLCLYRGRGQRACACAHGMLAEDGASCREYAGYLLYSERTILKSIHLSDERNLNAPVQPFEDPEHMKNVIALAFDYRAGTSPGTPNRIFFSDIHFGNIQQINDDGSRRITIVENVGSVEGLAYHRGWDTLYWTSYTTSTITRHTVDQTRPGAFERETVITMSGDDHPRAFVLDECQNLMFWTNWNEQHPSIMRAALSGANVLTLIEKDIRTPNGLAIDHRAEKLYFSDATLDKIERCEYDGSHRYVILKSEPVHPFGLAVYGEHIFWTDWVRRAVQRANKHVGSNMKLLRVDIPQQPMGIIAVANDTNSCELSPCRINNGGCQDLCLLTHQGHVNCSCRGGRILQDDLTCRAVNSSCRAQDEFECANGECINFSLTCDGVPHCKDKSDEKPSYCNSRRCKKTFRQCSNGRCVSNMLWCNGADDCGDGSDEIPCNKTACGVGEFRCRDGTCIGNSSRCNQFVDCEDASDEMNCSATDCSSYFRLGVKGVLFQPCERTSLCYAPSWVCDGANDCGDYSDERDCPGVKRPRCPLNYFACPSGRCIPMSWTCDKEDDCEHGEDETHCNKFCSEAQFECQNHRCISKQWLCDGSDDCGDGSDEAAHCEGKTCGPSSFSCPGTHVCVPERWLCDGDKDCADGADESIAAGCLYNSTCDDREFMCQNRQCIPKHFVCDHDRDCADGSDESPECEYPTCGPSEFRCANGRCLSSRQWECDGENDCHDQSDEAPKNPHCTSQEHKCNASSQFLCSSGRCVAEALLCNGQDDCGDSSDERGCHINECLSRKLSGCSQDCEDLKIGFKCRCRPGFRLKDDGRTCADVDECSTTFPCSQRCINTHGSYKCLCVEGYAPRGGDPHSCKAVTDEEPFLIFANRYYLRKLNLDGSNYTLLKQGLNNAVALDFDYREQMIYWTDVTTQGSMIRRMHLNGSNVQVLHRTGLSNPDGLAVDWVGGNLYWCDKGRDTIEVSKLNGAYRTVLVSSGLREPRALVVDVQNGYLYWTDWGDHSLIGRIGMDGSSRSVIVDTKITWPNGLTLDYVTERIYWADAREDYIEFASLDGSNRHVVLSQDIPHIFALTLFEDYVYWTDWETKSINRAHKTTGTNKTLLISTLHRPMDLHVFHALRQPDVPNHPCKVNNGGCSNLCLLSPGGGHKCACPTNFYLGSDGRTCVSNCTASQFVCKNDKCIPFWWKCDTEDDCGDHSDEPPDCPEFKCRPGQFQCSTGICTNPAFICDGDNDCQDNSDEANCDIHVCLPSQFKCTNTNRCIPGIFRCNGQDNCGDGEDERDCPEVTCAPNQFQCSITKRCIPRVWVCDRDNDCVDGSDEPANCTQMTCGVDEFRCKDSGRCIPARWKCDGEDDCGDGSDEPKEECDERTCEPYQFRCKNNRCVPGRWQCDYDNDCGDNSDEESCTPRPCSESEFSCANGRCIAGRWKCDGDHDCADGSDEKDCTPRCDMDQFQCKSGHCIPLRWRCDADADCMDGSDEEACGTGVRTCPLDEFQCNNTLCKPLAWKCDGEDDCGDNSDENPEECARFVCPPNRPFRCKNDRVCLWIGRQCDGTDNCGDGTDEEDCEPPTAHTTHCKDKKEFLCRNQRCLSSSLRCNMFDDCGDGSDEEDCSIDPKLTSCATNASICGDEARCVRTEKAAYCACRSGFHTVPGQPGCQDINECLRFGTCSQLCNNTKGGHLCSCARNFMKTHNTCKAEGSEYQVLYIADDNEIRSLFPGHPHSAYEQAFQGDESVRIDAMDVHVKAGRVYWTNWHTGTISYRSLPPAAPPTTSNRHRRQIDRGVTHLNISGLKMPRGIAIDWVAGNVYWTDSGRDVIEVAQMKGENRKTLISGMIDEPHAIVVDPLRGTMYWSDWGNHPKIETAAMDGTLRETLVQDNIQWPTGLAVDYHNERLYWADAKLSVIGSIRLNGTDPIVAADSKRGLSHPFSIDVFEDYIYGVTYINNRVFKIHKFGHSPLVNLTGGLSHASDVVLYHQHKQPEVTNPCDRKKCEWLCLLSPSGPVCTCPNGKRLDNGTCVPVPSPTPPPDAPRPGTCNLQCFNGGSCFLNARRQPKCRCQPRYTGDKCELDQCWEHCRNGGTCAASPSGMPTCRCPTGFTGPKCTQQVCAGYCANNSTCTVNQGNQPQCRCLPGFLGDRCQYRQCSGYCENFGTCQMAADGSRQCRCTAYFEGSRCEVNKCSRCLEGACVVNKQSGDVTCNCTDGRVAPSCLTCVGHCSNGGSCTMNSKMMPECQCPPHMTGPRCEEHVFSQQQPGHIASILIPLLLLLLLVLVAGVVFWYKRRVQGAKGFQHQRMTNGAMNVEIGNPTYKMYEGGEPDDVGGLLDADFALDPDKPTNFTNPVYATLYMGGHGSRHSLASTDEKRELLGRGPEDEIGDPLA

SARS-CoV-2 trimeric spike protein, stabilized in prefusion conformation (from UniProt P0DTC2 14-1273) (natural protein)
Kd: 72 nM
koff: 0.00034 s⁻¹
kon: 4800 M⁻¹ s⁻¹
